Our source for the koff values is paper PMC8352940 (2021).

Residue numbers refer to the chain shown, from its start.

This assay concerns the target SARS-CoV-2 RBD without the Fc fragment (SARS-CoV-2, UniProt P0DTC2 319-541). Description: BLI.

B1: nCoVmab2 (antibody, V domains shown)
VH: EVQLVQSGGGVVQPGRSLRLSCAASGFTVSSNYMSWVRQAPGKGLEWVSVIYSGGSTYYADSVKGRFTISRDNSKNTLYLQMNSLRAEDTAVYYCARGDGSDDYYYGMDVWGQGTTVTVSS
VL: QAVLTQPSSVSGAPGQRVTISCTGSSSNVGAGYDVHWYQQLPGTAPKLLIYGNSNRPSGVPDRFSGSKSGTSASLAITGLQAEDEADYYCQSYDSSLSGSVFGGGTKLTVL
On to B1, for which the koff stood at 4.95e-05 s⁻¹.

B2: nCoVmab1 (antibody, V domains shown)
VH: B1 VH with E1Q, Q6E, V11L, R16G
VL: QSVVTQPPSVSGAQGQRVFISCTGNGANIGMGYDVHWYQQLPGRAPKLLIFGNTNRPSGVPDRFSASRSGTSASLAITGLQTADEADYYCQSYDGNLRASVFGGGTKLTVL
Turning to B2, the koff was found to be 1.01e-05 s⁻¹.
